In publication PMC10233381 one finds percent by which the interaction was diminished data, which are given here for one substance.

For this assay, the target named is Myc-PUM1-R1147W (human) (UniProt Q14671). The assay is described as follows: co-IP; HEK293T co-transfected with Myc-PUM1 (WT or mutant) and a GST-tagged protein (250 ng each), 48 h; IP with anti-Myc, immunoblot with anti-GST; quantified against Myc-PUM1-WT; called in vitro by the paper. On the technique in general: A western blot detects proteins with antibodies after separation by electrophoresis.
Sequence of UniProt Q14671 (Q14671 other isoform, or with tags, fused parts or gaps R1147W): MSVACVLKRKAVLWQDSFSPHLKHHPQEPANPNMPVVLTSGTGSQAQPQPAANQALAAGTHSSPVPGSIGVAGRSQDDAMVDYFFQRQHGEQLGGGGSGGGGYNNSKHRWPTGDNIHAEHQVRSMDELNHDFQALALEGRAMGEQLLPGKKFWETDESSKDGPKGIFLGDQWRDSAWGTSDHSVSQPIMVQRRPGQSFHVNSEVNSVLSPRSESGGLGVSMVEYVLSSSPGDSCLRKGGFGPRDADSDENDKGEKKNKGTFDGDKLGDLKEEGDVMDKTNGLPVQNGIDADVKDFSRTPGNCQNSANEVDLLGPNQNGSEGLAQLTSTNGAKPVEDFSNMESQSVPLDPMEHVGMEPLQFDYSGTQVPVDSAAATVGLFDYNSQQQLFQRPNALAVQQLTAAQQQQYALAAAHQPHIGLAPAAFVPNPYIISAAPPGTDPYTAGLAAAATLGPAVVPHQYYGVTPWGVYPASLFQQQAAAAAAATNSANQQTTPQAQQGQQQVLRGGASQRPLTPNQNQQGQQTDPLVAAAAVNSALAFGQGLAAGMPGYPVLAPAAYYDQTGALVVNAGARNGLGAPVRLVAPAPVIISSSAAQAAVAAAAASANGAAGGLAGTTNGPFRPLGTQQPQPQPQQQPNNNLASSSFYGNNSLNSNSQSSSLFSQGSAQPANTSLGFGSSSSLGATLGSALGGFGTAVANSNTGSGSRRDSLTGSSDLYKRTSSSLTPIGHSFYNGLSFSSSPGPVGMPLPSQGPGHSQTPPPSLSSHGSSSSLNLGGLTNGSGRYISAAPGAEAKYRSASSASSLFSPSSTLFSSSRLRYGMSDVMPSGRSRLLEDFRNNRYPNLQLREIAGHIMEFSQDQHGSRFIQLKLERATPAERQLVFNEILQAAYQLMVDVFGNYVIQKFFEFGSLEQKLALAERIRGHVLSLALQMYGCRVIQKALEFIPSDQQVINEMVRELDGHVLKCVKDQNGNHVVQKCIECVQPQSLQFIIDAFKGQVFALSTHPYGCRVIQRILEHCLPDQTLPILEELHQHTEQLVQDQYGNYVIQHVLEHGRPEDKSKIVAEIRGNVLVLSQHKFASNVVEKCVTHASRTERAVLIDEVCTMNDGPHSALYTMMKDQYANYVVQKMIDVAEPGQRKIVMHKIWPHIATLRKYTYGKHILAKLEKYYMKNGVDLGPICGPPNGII

The substance “GST-CNOT1 (from UniProt A5YKK6 1-2376) (natural protein)” yielded a percent by which the interaction was diminished of 35%.
